Positions count from the first letter of the chain named.
T1: polypeptide GC3pep (human)
T1 construct: also called membrane proximal polypeptide GC3pep
T1 peptide: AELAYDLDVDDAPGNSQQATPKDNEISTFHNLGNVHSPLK

B1: hAb001H1L1 (antibody, human IgG1, V domains shown)
VH: EVQLVESGGGLVQPGGSLRLSCAASGFSFNTNAMNWVRQAPGKGLEWVGRIRSKSNNYATYYADSVKDRFTISRDDSKNSLYLQMNSLKTEDTAVYYCVRDGYYVLFAYWGQGTLVTVSS
VL: DIVMTQTPLSLPVTPGEPASISCRFSQSIVNSNGNTYLEWFLQKPGQSPQLLIYKVSNRFSGVPDRFSGSGSGTDFTLKISRVEAEDVGVYYCFQGSHVPFTFGQGTKLEIK
notes: Humanized F2.169.2, H1+L1
B2: hAb001H2L1 (antibody, human IgG1, V domains shown)
VH: B1 VH with N79S
VL: B1 VL
notes: Humanized F2.169.2, H2+L1
B3: hAb001H1L1a (antibody, human IgG1, V domains shown)
VH: B1 VH
VL: B1 VL with N33D
notes: Humanized F2.169.2, H1+L1a
B4: hAb001H1aL1b (antibody, human IgG1, V domains shown)
VH: B1 VH with D68G
VL: B1 VL with G34A
notes: Humanized F2.169.2, H1a+L1b
B5: hAb001H1aL1 (antibody, human IgG1, V domains shown)
VH: B1 VH with D68G
VL: B1 VL
notes: Humanized F2.169.2, H1a+L1
B6: hAb001H1aL1a (antibody, human IgG1, V domains shown)
VH: B1 VH with D68G
VL: B1 VL with N33D
notes: Humanized F2.169.2, H1a+L1a
B7: F4.26.1 (antibody, human IgG1, kappa, V domains shown)
VH: QVQLKQSGPGLVQPSQSLSITCTVSGFSLTSYGVHWVRQSPGKGLEWLGVIWSSGNTDYNAVLISRLSIKKDDSKSQVFFKMNSPQVDDSAIYYCGRNGGWLLRGFMDFWGQGTSVTVSS
VL: DVVMTQTPLSLPVSLGDQASISCRSSQSLLHSNGNTYLHWYLQRSGQSPNLLIYKVSNRFSGVPDRFSGGGSGTDFTLKISRVEAEDLGIYFCSQSTHVPWTFGGGTKLEIKR
notes: human-murine chimeric antibody
B8: F1.145.22 (antibody, human IgG1, kappa, V domains shown)
VH: QVQLQQSGTDLARPGASVKLSCKASGYTFTSFGISWVKQRTGQGLEWIGEIYPRSGSPYYNEKFTGKATLTADKSSSTAYMELRSLTSEDSAVYFCAKDFGSSYVFDYWGQGTALTVSS
VL: DIQMTQSPASLSASVGETVTITCRASENIYSYLTWYQQKQGKSPQLLVYNAKTLAEGVPSRFSGSGSGTQFSLKINSLQPEDFGTYYCQHHYGTPPTFGTGTKLDLKR
notes: as for B7
B9: hAb007LH2L1b (antibody, human IgG1, V domains shown)
VH: EVQLVQSGAEVKKPGSSVKVSCKASGYTFTDYEMHWVRQAPGQGLEWMGTIDPETGNTAYNQKFKGRVTITADKSTSTAYMELSSLRSEDTAVYYCTRPYSLTYWGQGTLVTVSS
VL: B1 VL with F25S, I29F, N31H, G34R, N35D, E39Q, F41Y, F101Y
notes: Humanized F3.81.19, H2+L1b
B10: hAb005LH1L1b (antibody, human IgG1, V domains shown)
VH: EVQLVQSGAEVKKPGASVKVSCKASGYTFTDYEMHWVRQAPGQGLEWMGAIDPETGNTAYIQKFKGRVTMTTDKSTSTAYMELRSLRSDDTAVYYCTRFYSYSHWGQGTTVTVSS
VL: DIVMTQTPLSLPVTPGEPASISCRSSQSLVHSNRNTYLHWYLQKPGQSPQLLIYKVSNRFSGVPDRFSGSGSGTDFTLKISRVEAEDVGVYYCSQNTHVPPTFGGGTKVEIK
notes: Humanized F3.54.12, H1+L1b
B11: hAb003LH2L1b (antibody, human IgG1, V domains shown)
VH: B9 VH with T28R, N61T, K65M, G66D, P99G, L102F
VL: B1 VL with F25S, S28N, N31H, G34R, E39Q, F41Y, Y54F
notes: Humanized F2.154.1, H2+L1b
B12: hAb006LH3L1b (antibody, human IgG1, V domains shown)
VH: B9 VH with M34I, T50A, E54K, K65M, I70L, P99Y, Y100F, L102F, T103A
VL: B1 VL with F25S, S28T, I29F, N31H, G34A, E39Q, F41Y, F101Y
notes: Humanized F3.38.7, H3+L1b

These binders were tested against T2, murine GPC3-his protein (murine, UniProt Q8CFZ4 25-558, limits assumed) (assay: ELISA, murine GPC3-his coated; antibody 0.02 nM).
T2 construct: Bought protein; also called mouse GPC3 protein; murine GPC3 protein; not shown: His tag
T2 sequence (Q8CFZ4 25-558 limits assumed): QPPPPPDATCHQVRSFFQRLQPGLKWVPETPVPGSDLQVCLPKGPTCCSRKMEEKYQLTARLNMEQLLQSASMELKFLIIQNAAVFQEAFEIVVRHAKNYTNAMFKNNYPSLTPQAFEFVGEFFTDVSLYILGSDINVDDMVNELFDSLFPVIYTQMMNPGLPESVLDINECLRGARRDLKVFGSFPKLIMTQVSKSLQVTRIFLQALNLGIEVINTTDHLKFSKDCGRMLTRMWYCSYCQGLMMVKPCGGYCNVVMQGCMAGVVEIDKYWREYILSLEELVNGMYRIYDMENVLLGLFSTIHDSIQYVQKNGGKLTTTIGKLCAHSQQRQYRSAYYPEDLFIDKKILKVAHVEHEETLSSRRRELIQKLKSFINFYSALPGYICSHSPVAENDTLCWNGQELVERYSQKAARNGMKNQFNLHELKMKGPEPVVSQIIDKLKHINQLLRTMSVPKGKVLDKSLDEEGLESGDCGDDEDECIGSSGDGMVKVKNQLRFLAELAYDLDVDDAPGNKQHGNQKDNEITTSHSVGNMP

| OD450 nm | Binder |
| --- | --- |
| 1.32 | B1 |
| 1.27 | B2 |
| 0.657 | B3 |
| 1.15 | B4 |
| 1.15 | B5 |
| 0.67 | B6 |

These binders were tested against T2, murine GPC3-his protein (assay: ELISA, murine GPC3-his coated; antibody 0.53 nM).
Method: (§1) The specific method is described as follows: The antigen protein was diluted with PBS to a final concentration of 1 μg/mL, and the diluent was added to a 96-well ELISA plate at 50 μL/well. The plate was sealed with a plastic film and incubated at 4° C. overnight, washed twice with PBS the next day, and a blocking solution [PBS+2% (w/w) BSA] was added for blocking at room temperature for 2 h. […] After incubation at 37° C. for 2 h, the plate was washed 3 times with PBS. A horseradish peroxidase (HRP)-labeled secondary antibody (purchased from Merck, Cat. No. AP113P) was added for incubation at 37° C. for 1 h, and the plate was washed 5 times with PBS. A TMB substrate was added at 50 μL/well for incubation at room temperature for 10 min, then a stop solution (1.0M HCl) was added at 50 μL/well.

| OD450 nm | Binder |
| --- | --- |
| 2.8 | B1 |
| 2.48 | B2 |
| 2.37 | B3 |
| 2.52 | B4 |
| 2.45 | B5 |
| 2.29 | B6 |

Molecular target: T1, polypeptide GC3pep
Test: ELISA, GC3pep coated, antibody 0.01 nM;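 also: bound antibody detected with an HRP-conjugated secondary antibody and TMB substrate, color reaction stopped with HCl before reading absorbance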
Method: (§2) The plate was sealed with a plastic film and incubated at 4° C. overnight, washed twice with PBS the next day, and a blocking solution [PBS+2% (w/w) BSA] was added for blocking at room temperature for 2 h. […] After incubation at 37° C. for 2 h, the plate was washed 3 times with PBS. A horseradish peroxidase (HRP)-labeled secondary antibody (purchased from Merck, Cat. No. AP113P) was added for incubation at 37° C. for 1 h, and the plate was washed 5 times with PBS. A TMB substrate was added at 50 μL/well for incubation at room temperature for 10 min, then a stop solution (1.0M HCl) was added at 50 μL/well.

| OD450 nm [OD450 nm] | Binder |
| --- | --- |
| 0.16 | B7 |
| 0.04 | B8 |

Each binder was assayed against T3, monkey GPC3-His protein (monkey) (assay: ELISA, monkey GPC3-His coated; antibody 0.53 nM).
T3 construct: Bought protein; also called monkey GPC3 protein
Method: as §1

| OD450 nm | Binder |
| --- | --- |
| 2.09 | B9 |
| 2.46 | B1 |
| 1.09 | B10 |
| 2.3 | B11 |
| 2.56 | B12 |
| 2.47 | B2 |
| 2.08 | B3 |
| 2.39 | B4 |
| 2.36 | B5 |
| 2.19 | B6 |

Molecular target: T1, polypeptide GC3pep
Test: ELISA, GC3pep coated, antibody 1 nM;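 also: bound antibody detected with an HRP-conjugated secondary antibody and TMB substrate, reaction stopped with HCl, after 2 h binding at 37 °C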
Method: as §2

| OD450 nm [OD450 nm] | Binder |
| --- | --- |
| 0.28 | B7 |
| 0.04 | B8 |

What follows are binders tested against T2, murine GPC3-his protein (assay: ELISA, murine GPC3-his coated; antibody 13.33 nM).
Method: as §1

| OD450 nm | Binder |
| --- | --- |
| 2.82 | B1 |
| 2.62 | B2 |
| 2.57 | B3 |
| 2.73 | B4 |
| 2.63 | B5 |
| 2.44 | B6 |

The binders below were run against T2, murine GPC3-his protein (assay: ELISA, murine GPC3-his coated; antibody 0.0008 nM).
Method: as §1

| OD450 nm | Binder |
| --- | --- |
| 0.239 | B1 |
| 0.277 | B2 |
| 0.117 | B3 |
| 0.185 | B4 |
| 0.255 | B5 |
| 0.092 | B6 |

What follows are binders tested against T4, murine GPC3-His protein (murine, UniProt Q8CFZ4 25-558, limits assumed) (assay: SPR, antibody captured on Protein A chip, murine GPC3-His injected).
T4 construct: bought protein; also called murine GPC3 protein
T4 sequence (Q8CFZ4 25-558 limits assumed): as above
Method: The flow cell was set at 25° C. The sample block was set at 16° C. Both were pretreated with the running buffer. In each cycle, first, the antibody to be tested was captured using the Protein A chip, and then a single concentration of GPC3 antigen protein was injected. […] The association was determined by injecting different concentrations of human GPC3-His in the solution and maintaining for 240 s, wherein the flow rate was 30 μL/min, and the protein was diluted at a 1:1 dilution ratio from 200 nM to obtain 5 concentrations in total. The dissociation phase was monitored for up to 600 s and triggered by switching from the sample solution to the running buffer. The surface was regenerated by washing with 10 mM glycine solution (pH 1.5) at a flow rate of 30 μL/min for 30 s. The difference in bulk refractive index was corrected by subtracting the responses obtained from the goat anti-human Fc surface. Blank injections (double reference) were also subtracted. To calculate the apparent KD and other kinetic parameters, the Langmuir 1:1 model was used.

| Kd [nM] | koff [s⁻¹] | kon [M⁻¹ s⁻¹] | Binder |
| --- | --- | --- | --- |
| 1.46 | 0.00072 | 492000 | B7 |
| 6.87 | 0.00173 | 251000 | B8 |

Each binder was assayed against T3, monkey GPC3-His protein (assay: ELISA, monkey GPC3-His coated; antibody 0.004 nM).
Method: as §1

| OD450 nm | Binder |
| --- | --- |
| 0.127 | B9 |
| 0.373 | B1 |
| 0.215 | B10 |
| 0.386 | B11 |
| 0.306 | B12 |
| 0.4 | B2 |
| 0.211 | B3 |
| 0.347 | B4 |
| 0.379 | B5 |
| 0.132 | B6 |

These binders were tested against T3, monkey GPC3-His protein (assay: ELISA, monkey GPC3-His coated; antibody 2.67 nM).
Method: as §1

| OD450 nm | Binder |
| --- | --- |
| 2.35 | B9 |
| 2.54 | B1 |
| 1.11 | B10 |
| 2.36 | B11 |
| 2.55 | B12 |
| 2.59 | B2 |
| 2.27 | B3 |
| 2.39 | B4 |
| 2.57 | B5 |
| 2.44 | B6 |

Molecular target: T1, polypeptide GC3pep
Test: ELISA, GC3pep coated, antibody 0.0001 nM

| OD450 nm [OD450 nm] | Binder |
| --- | --- |
| 0.05 | B7 |
| 0.04 | B8 |

These binders were tested against T3, monkey GPC3-His protein (assay: ELISA, monkey GPC3-His coated; antibody 13.33 nM).
Method: as §1

| OD450 nm | Binder |
| --- | --- |
| 2.56 | B9 |
| 2.55 | B1 |
| 1.16 | B10 |
| 2.27 | B11 |
| 2.38 | B12 |
| 2.64 | B2 |
| 2.37 | B3 |
| 2.54 | B4 |
| 2.52 | B5 |
| 2.42 | B6 |

Molecular target: T1, polypeptide GC3pep
Test: ELISA, GC3pep coated, antibody 0.001 nM

| OD450 nm [OD450 nm] | Binder |
| --- | --- |
| 0.19 | B7 |
| 0.04 | B8 |

These binders were tested against T3, monkey GPC3-His protein (assay: ELISA, monkey GPC3-His coated; antibody 0.0008 nM).
Method: as §1

| OD450 nm | Binder |
| --- | --- |
| 0.08 | B9 |
| 0.198 | B1 |
| 0.107 | B10 |
| 0.185 | B11 |
| 0.125 | B12 |
| 0.304 | B2 |
| 0.068 | B3 |
| 0.144 | B4 |
| 0.201 | B5 |
| 0.073 | B6 |

The binders below were run against T2, murine GPC3-his protein (assay: ELISA, murine GPC3-his coated; antibody 66.66 nM).
Method: as §1

| OD450 nm | Binder |
| --- | --- |
| 2.64 | B1 |
| 2.62 | B2 |
| 2.58 | B3 |
| 2.76 | B4 |
| 2.68 | B5 |
| 2.45 | B6 |

Molecular target: T1, polypeptide GC3pep
Test: ELISA, GC3pep coated, antibody 0.1 nM;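 also: antibody allowed to bind the coated plate 2 h at 37 °C, then detected via HRP-conjugated secondary antibody and TMB development for 10 min, stopped with HCl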

| OD450 nm [OD450 nm] | Binder |
| --- | --- |
| 0.08 | B7 |
| 0.04 | B8 |

The binders below were run against T3, monkey GPC3-His protein (assay: ELISA, monkey GPC3-His coated; antibody 0.11 nM).
Method: as §1

| OD450 nm | Binder |
| --- | --- |
| 0.967 | B9 |
| 1.96 | B1 |
| 0.949 | B10 |
| 1.96 | B11 |
| 1.99 | B12 |
| 2.11 | B2 |
| 1.23 | B3 |
| 1.99 | B4 |
| 2 | B5 |
| 1.44 | B6 |

These binders were tested against T2, murine GPC3-his protein (assay: ELISA, murine GPC3-his coated; antibody 0.004 nM).
Method: as §1

| OD450 nm | Binder |
| --- | --- |
| 0.48 | B1 |
| 0.524 | B2 |
| 0.356 | B3 |
| 0.346 | B4 |
| 0.44 | B5 |
| 0.206 | B6 |

Molecular target: T1, polypeptide GC3pep
Test: ELISA, GC3pep coated, antibody 100 nM;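 also: detection with an HRP-conjugated secondary antibody and TMB substrate, color reaction stopped with HCl before absorbance reading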
Method: as §2

| OD450 nm [OD450 nm] | Binder |
| --- | --- |
| 0.12 | B7 |
| 0.11 | B8 |

Each binder was assayed against T2, murine GPC3-his protein (assay: ELISA, murine GPC3-his coated; antibody 2.67 nM).
Method: as §1

| OD450 nm | Binder |
| --- | --- |
| 2.69 | B1 |
| 2.59 | B2 |
| 2.49 | B3 |
| 2.68 | B4 |
| 2.52 | B5 |
| 2.49 | B6 |

Molecular target: T1, polypeptide GC3pep
Test: ELISA, GC3pep coated, antibody 10 nM;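 also: antibody bound to the coated peptide for 2 h at 37 °C, detected through an HRP-conjugated secondary antibody with TMB colour development stopped by acid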

| OD450 nm [OD450 nm] | Binder |
| --- | --- |
| 0.04 | B7 |
| 0.05 | B8 |

These binders were tested against T3, monkey GPC3-His protein (assay: ELISA, monkey GPC3-His coated; antibody 66.66 nM).
Method: as §1

| OD450 nm | Binder |
| --- | --- |
| 2.61 | B9 |
| 2.55 | B1 |
| 1.16 | B10 |
| 2.35 | B11 |
| 2.67 | B12 |
| 2.68 | B2 |
| 2.16 | B3 |
| 2.59 | B4 |
| 2.52 | B5 |
| 2.34 | B6 |

What follows are binders tested against T2, murine GPC3-his protein (assay: ELISA, murine GPC3-his coated; antibody 0.11 nM).
Method: as §1

| OD450 nm | Binder |
| --- | --- |
| 2.31 | B1 |
| 2.1 | B2 |
| 1.66 | B3 |
| 2.05 | B4 |
| 1.95 | B5 |
| 1.49 | B6 |

What follows are binders tested against T5, GPC3 on HepG2 cells (human, UniProt P51654 25-554) (assay: FACS on HepG2 cells).
T5 construct: whole, on cells; also called glypican-3
Method: The desired cells were expanded to a logarithmic growth phase in a T-75 cell culture flask, the medium was removed by pipetting, and the cells were washed twice with a PBS buffer, and digested with trypsin. Then a complete medium was added to stop the digestion, and the cells were blown into a single cell suspension. After counting, the cells were centrifuged, and the cell pellet was resuspended with an FACS buffer (PBS+2% fetal bovine serum) to 2×10⁶ cells/mL. The cell resuspension solution was added to a 96-well FACS reaction plate at 50 μl/well, and a humanized antibody sample to be tested was added at 50 μl/well for incubation at 4° C. for 1 h. […] After the plate was centrifuged and washed 3 times with a PBS buffer, 100 μl of the resulting solution was assayed and analyzed by FACS (FACS Canto™, purchased from BD Biosciences). Data analysis was performed by software (FlowJo) to obtain the mean fluorescence intensity (MFI) of the cells. Then, analysis was performed by software (GraphPad Prism8), data were fitted, and EC₅₀ values were calculated.

| EC50 [nM] | Max MFI | Binder |
| --- | --- | --- |
| 9.53 | 5320 | B9 |
| 1.01 | 4800 | B10 |
| 0.84 | 4620 | B11 |
| 1.49 | 4610 | B12 |

Each binder was assayed against T3, monkey GPC3-His protein (assay: ELISA, monkey GPC3-His coated; antibody 0.02 nM).
Method: as §1

| OD450 nm | Binder |
| --- | --- |
| 0.32 | B9 |
| 1.08 | B1 |
| 0.664 | B10 |
| 1.1 | B11 |
| 1.01 | B12 |
| 1.05 | B2 |
| 0.39 | B3 |
| 1.02 | B4 |
| 1.03 | B5 |
| 0.437 | B6 |

Reference: US20260116991A1 (HAINAN SIMCERE ZAIMING PHARMACEUTICAL, published 2026)
